Laboratory results reported in patent US20130195901A1.

Experiments:
[1] = target: HLA-A*0201 class I monomer of the iTopia Epitope Discovery System; test: iTopia affinity assay (ED50)
[2] = target: HLA-A*0201 class I monomer of the iTopia Epitope Discovery System; test: iTopia off-rate assay

fold reduction of affinity vs native peptide [1] [fold] | fold reduction of ED50 vs native peptide [1] [fold] | fold increase of halftime of dissociation vs native peptide [2] [fold] | Substance
3 | – | – | PRAME425-433 analog, Nva at P2 (peptide)
– | > 4 | 2 | PRAME425-433 S425F L433Nle analog (peptide)
